Assay results as given in PMC8675521, “Improved methanol tolerance of Rhizomucor miehei lipase based on N‑glycosylation within the α-helix region and its application in biodiesel production” (Biotechnology for Biofuels, 2021).

Substrate: CCCCCCCCCCCCCCCC(=O)Oc1ccc([N+](=O)[O-])cc1
Assay: purified protein
Type: biochemical, Rhizomucor miehei
Conditions: 50 mM PBS pH 8.0, 40 °C, 5 min
[1] = N93 [sic], made on N9A/N59A template, N-glycosylated
[2] = N115, made on N9A/N59A template, N-glycosylated
[3] = N218, made on N9A/N59A template, N-glycosylated
[4] = printed N183, made on N9A/N59A template, N-glycosylated
[5] = propeptide N-glycosylation sites removed
[6] = N260 [sic], made on N9A/N59A template, N-glycosylated

B1: ProRML (Rhizomucor miehei lipase with propeptide) (Rhizomucor miehei) (protein)
chain: AVPIKRQSNSTVDSLPPLIPSRTSAPSSSPSTTDPEAPAMSRNGPLPSDVETKYGMALNATSYPDSVVQAMSIDGGIRAATSQEINELTYYTTLSANSYCRTVIPGATWDCIHCDATEDLKIIKTWSTLIYDTNAMVARGDSEKTIYIVFRGSSSIRNWIADLTFVPVSYPPVSGTKVHKGFLDSYGEVQNELVATVLDQFKQYPSYKVAVTGHSLGGATALLCALDLYQREEGLSSSNLFLYTQGQPRVGDPAFANYVVSTGIPYRRTVNERDIVPHLPPAAFGFLHAGEEYWITDNSPETVQVCTSDLETSDCSNSIVPFTSVLDHLSYFGINTGLCT
notes: propeptide plus mature peptide, plasmid pPIC9K (alpha-factor secretion), Pichia pastoris GS115, HisTrap purified; about 40 kDa unglycosylated, mutants about 55 kDa N-glycosylated
**Q.** Which Km does the source give for B1 here?
**A.** Its Km is 1160 µM.

**Q.** And the kcat?
**A.** The kcat was 1.75 ± 0.0493 s⁻¹.

**Q.** And the kcat/Km?
**A.** The kcat/Km was 1510 ± 42.5 M⁻¹ s⁻¹.

B2: ProRML (Rhizomucor miehei lipase with propeptide) (Rhizomucor miehei; N32A/N82A/T116N) (protein)
chain: AVPIKRQSASTVDSLPPLIPSRTSAPSSSPSTTDPEAPAMSRNGPLPSDVETKYGMALAATSYPDSVVQAMSIDGGIRAATSQEINELTYYTNLSANSYCRTVIPGATWDCIHCDATEDLKIIKTWSTLIYDTNAMVARGDSEKTIYIVFRGSSSIRNWIADLTFVPVSYPPVSGTKVHKGFLDSYGEVQNELVATVLDQFKQYPSYKVAVTGHSLGGATALLCALDLYQREEGLSSSNLFLYTQGQPRVGDPAFANYVVSTGIPYRRTVNERDIVPHLPPAAFGFLHAGEEYWITDNSPETVQVCTSDLETSDCSNSIVPFTSVLDHLSYFGINTGLCT
notes: as for B1
**Q.** Which Km [1] does the source give for B2 here?
**A.** Its Km is 4700 µM.

**Q.** And the kcat [1]?
**A.** Its kcat is 63.6 ± 2.62 s⁻¹.

**Q.** What about the kcat/Km [1] of the same protein?
**A.** Its kcat/Km is 13500 ± 558 M⁻¹ s⁻¹.

B3: ProRML (Rhizomucor miehei lipase with propeptide) (Rhizomucor miehei; D138N/N32A/N82A) (protein)
chain: AVPIKRQSASTVDSLPPLIPSRTSAPSSSPSTTDPEAPAMSRNGPLPSDVETKYGMALAATSYPDSVVQAMSIDGGIRAATSQEINELTYYTTLSANSYCRTVIPGATWDCIHCNATEDLKIIKTWSTLIYDTNAMVARGDSEKTIYIVFRGSSSIRNWIADLTFVPVSYPPVSGTKVHKGFLDSYGEVQNELVATVLDQFKQYPSYKVAVTGHSLGGATALLCALDLYQREEGLSSSNLFLYTQGQPRVGDPAFANYVVSTGIPYRRTVNERDIVPHLPPAAFGFLHAGEEYWITDNSPETVQVCTSDLETSDCSNSIVPFTSVLDHLSYFGINTGLCT
notes: as for B1
**Q.** Which results are given for B3?
**A.** Km [2]: 640 µM; kcat [2]: 7.26 ± 0.277 s⁻¹; kcat/Km [2]: 11300 ± 432 M⁻¹ s⁻¹

B4: ProRML (Rhizomucor miehei lipase with propeptide) (Rhizomucor miehei; G241N/N32A/N82A) (protein)
chain: AVPIKRQSASTVDSLPPLIPSRTSAPSSSPSTTDPEAPAMSRNGPLPSDVETKYGMALAATSYPDSVVQAMSIDGGIRAATSQEINELTYYTTLSANSYCRTVIPGATWDCIHCDATEDLKIIKTWSTLIYDTNAMVARGDSEKTIYIVFRGSSSIRNWIADLTFVPVSYPPVSGTKVHKGFLDSYGEVQNELVATVLDQFKQYPSYKVAVTGHSLGNATALLCALDLYQREEGLSSSNLFLYTQGQPRVGDPAFANYVVSTGIPYRRTVNERDIVPHLPPAAFGFLHAGEEYWITDNSPETVQVCTSDLETSDCSNSIVPFTSVLDHLSYFGINTGLCT
notes: as for B1
**Q.** Which results are given for B4?
**A.** Km [3]: 13200 µM; kcat/Km [3]: 64800 ± 1970 M⁻¹ s⁻¹

B5: ProRML (Rhizomucor miehei lipase with propeptide) (Rhizomucor miehei; L206N/N32A/N82A) (protein)
chain: AVPIKRQSASTVDSLPPLIPSRTSAPSSSPSTTDPEAPAMSRNGPLPSDVETKYGMALAATSYPDSVVQAMSIDGGIRAATSQEINELTYYTTLSANSYCRTVIPGATWDCIHCDATEDLKIIKTWSTLIYDTNAMVARGDSEKTIYIVFRGSSSIRNWIADLTFVPVSYPPVSGTKVHKGFNDSYGEVQNELVATVLDQFKQYPSYKVAVTGHSLGGATALLCALDLYQREEGLSSSNLFLYTQGQPRVGDPAFANYVVSTGIPYRRTVNERDIVPHLPPAAFGFLHAGEEYWITDNSPETVQVCTSDLETSDCSNSIVPFTSVLDHLSYFGINTGLCT
notes: as for B1
**Q.** Which results are given for B5?
**A.** Km [4]: 360 µM; kcat [4]: 1.186 ± 0.00633 s⁻¹; kcat/Km [4]: 3258 ± 17.5 M⁻¹ s⁻¹

B6: ProRML (Rhizomucor miehei lipase with propeptide) (Rhizomucor miehei; N32A/N82A) (protein)
chain: AVPIKRQSASTVDSLPPLIPSRTSAPSSSPSTTDPEAPAMSRNGPLPSDVETKYGMALAATSYPDSVVQAMSIDGGIRAATSQEINELTYYTTLSANSYCRTVIPGATWDCIHCDATEDLKIIKTWSTLIYDTNAMVARGDSEKTIYIVFRGSSSIRNWIADLTFVPVSYPPVSGTKVHKGFLDSYGEVQNELVATVLDQFKQYPSYKVAVTGHSLGGATALLCALDLYQREEGLSSSNLFLYTQGQPRVGDPAFANYVVSTGIPYRRTVNERDIVPHLPPAAFGFLHAGEEYWITDNSPETVQVCTSDLETSDCSNSIVPFTSVLDHLSYFGINTGLCT
notes: as for B1
**Q.** With B6 as the protein, how does the Km [5] read?
**A.** Its Km is 350 µM.

**Q.** And the kcat [5]?
**A.** The kcat was 0.844 ± 0.0385 s⁻¹.

**Q.** And the kcat/Km [5]?
**A.** Its kcat/Km is 2420 ± 111 M⁻¹ s⁻¹.

B7: ProRML (Rhizomucor miehei lipase with propeptide) (Rhizomucor miehei; N32A/N82A/V283N) (protein)
chain: AVPIKRQSASTVDSLPPLIPSRTSAPSSSPSTTDPEAPAMSRNGPLPSDVETKYGMALAATSYPDSVVQAMSIDGGIRAATSQEINELTYYTTLSANSYCRTVIPGATWDCIHCDATEDLKIIKTWSTLIYDTNAMVARGDSEKTIYIVFRGSSSIRNWIADLTFVPVSYPPVSGTKVHKGFLDSYGEVQNELVATVLDQFKQYPSYKVAVTGHSLGGATALLCALDLYQREEGLSSSNLFLYTQGQPRVGDPAFANYVNSTGIPYRRTVNERDIVPHLPPAAFGFLHAGEEYWITDNSPETVQVCTSDLETSDCSNSIVPFTSVLDHLSYFGINTGLCT
notes: as for B1
**Q.** Which Km [6] does the source give for B7 here?
**A.** Its Km is 1250 µM.

**Q.** What about the kcat [6] of the same protein?
**A.** The kcat was 4.89 ± 0.149 s⁻¹.

**Q.** And the kcat/Km [6]?
**A.** The kcat/Km was 3930 ± 120 M⁻¹ s⁻¹.
